# Experiments:
# [1] = biological target: T1, Human LILRB2 on primary human myeloid cells (human, UniProt Q8N423 22-597); test: flow cytometry, AF647-conjugated antibody on human M0 macrophages (7 subjects), average
# T1 construct: whole, on cells; the cell type is named under assay; also called LILRB2 on monocytes, M0 and M2c macrophages, myeloid dendritic cells, neutrophils
# Method: Anti-LILRB2 antibodies were evaluated for their ability to bind myeloid cell subsets expressing LILRB2, including monocytes, M0 macrophages, and M2c macrophages. M2c macrophages are used as a surrogate for tumor-associated macrophages, a suppressive macrophage commonly found in the tumor microenvironment. Frozen monocytes were removed from storage in vapor phase liquid nitrogen and thawed by gentle swirling in a water bath at 37° C., then resuspended in X-VIVO™ 15 media with 10% FBS. PBMC were placed in a 15 mL conical tube and centrifuged at 300×g for 5 minutes, then supernatant was removed. Cells were resuspended in Assay Medium (X-VIVO™ 15+10% FBS) at a cell density of 2.5×10⁵ cells/mL. Cells were plated into 96-well flat bottom plates at 100 μL/well (25K cells/well). M0 and M2c macrophages were generated as described in Example 10 and collected from flasks by incubation for 15 min at RT in Macrophage Detachment Solution DXF, then removed from the flask into X-VIVO™ 15 medium. Following centrifugation, the cells were resuspended in FACS Blocking Buffer D (FACS Buffer+10% FBS+0.5 mg/mL human IgG1) then incubated at 4° C. for 30 minutes. […]
# [2] = biological target: T2, Human LILRB2 on stably transduced HEK293T cells (human, UniProt Q8N423 22-597); test: flow cytometry, HEK293T cells stably expressing human LILRB2
# T2 construct: Lentiviral transduction (G&P Biosciences LTV2992); also called HEK293T-LILRB2; LILRB2-expressing HEK293T cells
# Method: To confirm binding of LILRB2 antibodies, flow cytometry binding assays were performed using HEK293T cells stably expressing human LILRB2 (Example 3). […] The B2A-IgG1 and B2A-IgG4 chimeras bound the LILRB2-expressing HEK293T cells, with equivalent EC₅₀ values of 0.21 nM and 0.30 nM respectively.
# Select humanized variant antibodies were purified and tested for their ability to bind human LILRB2 by ELISA, using the method described in Example 2, and binding to HEK293T cells expressing human LILRB2, using the method described in Example 4. Representative data are shown for IgG4 variants in Table 6.
# T2 sequence (Q8N423 other isoform, or with tags, fused parts or gaps limits assumed): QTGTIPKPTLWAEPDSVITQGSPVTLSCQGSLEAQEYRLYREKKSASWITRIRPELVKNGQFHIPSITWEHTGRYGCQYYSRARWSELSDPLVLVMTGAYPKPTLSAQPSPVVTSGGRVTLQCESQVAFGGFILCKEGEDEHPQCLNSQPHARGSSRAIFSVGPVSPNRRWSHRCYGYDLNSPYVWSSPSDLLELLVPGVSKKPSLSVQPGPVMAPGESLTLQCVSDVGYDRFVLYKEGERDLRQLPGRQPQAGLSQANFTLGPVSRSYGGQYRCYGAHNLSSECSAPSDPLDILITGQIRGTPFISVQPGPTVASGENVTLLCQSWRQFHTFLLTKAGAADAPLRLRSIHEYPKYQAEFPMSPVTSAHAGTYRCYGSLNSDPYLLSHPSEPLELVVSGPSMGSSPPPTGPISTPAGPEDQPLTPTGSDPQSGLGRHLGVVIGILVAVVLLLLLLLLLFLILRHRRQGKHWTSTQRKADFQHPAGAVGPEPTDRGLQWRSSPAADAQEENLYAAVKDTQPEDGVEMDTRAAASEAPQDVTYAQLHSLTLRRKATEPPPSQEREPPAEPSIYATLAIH
# T1 sequence (Q8N423 22-597): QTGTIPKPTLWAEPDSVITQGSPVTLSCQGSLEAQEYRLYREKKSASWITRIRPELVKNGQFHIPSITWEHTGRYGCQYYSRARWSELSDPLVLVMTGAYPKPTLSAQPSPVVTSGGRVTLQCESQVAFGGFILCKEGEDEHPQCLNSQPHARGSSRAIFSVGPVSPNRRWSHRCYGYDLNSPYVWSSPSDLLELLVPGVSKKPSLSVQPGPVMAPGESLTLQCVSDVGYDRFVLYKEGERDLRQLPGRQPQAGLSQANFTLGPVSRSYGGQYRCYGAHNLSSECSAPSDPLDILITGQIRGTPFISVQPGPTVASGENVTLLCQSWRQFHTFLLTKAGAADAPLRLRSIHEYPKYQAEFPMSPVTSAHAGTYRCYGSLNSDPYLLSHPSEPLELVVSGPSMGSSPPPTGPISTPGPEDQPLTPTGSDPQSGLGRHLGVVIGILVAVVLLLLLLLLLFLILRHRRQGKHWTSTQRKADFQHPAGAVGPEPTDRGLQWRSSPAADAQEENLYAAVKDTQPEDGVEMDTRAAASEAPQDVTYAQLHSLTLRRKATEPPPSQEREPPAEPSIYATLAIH
EC50 [1] [µg/mL],BMAX [gMFI] [2] [gMFI],EC50 [2] [µg/mL],Binder
0.0748,–,–,"B2H1-55 (antibody, V domains shown, Humanized variant, human IgG1 / kappa; also called humanized variant B2H1-55; humanized LILRB2 antibody B2H1-55) VH: EVQLLESGGGLVQPGTSLTLSCAASGFSLSTYAMSWVRQAPGKGLEWIGWIYNDGSTYYAAWAKGRFTISKDTSKTTLYLQITSLRAEDTATYFCAREGDYIGYFNIWGQGTLVTVSS VL: DVVMTQTPSSVSAALGGTVTIKCQASQSIGSNLAWYQLKPGQRPKLLIYAAATLASGGSSRFKGSGSGTDFTLTISSLEPADAATYYCQSYVSGSSDVAFGGGTEVVVK"
–,12100,0.00034,"B2A-IgG4 (antibody, Rabbit variable regions on human IgG4 / kappa constant regions; also called B2A-IgG4 chimera; Parent B2A-IgG4) heavy: not shown light: DVVMTQTPSSVSAALGGTVTIKCQASQSIGSNLAWYQLKPGQRPKLLIYAAATLASGGSSRFKGSGSGTDFTLTISDLECADAATYYCQSYVSGSSDVAFGGGTEVVVKRTVAAPSVFIFPPSDEQLKSGTASVVCLLNNFYPREAKVQWKVDNALQSGNSQESVTEQDSKDSTYSLSSTLTLSKADYEKHKVYACEVTHQGLSSPVTKSFNRGEC"
